Measured values published in patent US20070054846A1, “Bcl-w structure and uses therefor” (priority 2002, published 2007).
Positions count from the first letter of the chain named. Names may count otherwise.

T1: Bcl-wΔC10 (Homo sapiens, UniProt Q92843, A128E/Q133R)
T1 construct: made in house; host or cells: E. coli BL21(DE3)
T1 sequence (Q92843 1-183 A128E/Q133R): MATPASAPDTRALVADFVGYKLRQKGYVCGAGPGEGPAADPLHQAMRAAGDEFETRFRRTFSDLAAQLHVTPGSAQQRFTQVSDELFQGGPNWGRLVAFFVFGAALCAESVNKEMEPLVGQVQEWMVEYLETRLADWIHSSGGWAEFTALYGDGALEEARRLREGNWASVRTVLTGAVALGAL

T2: Bcl-wΔC20 (Homo sapiens, UniProt Q92843, Q133R)
T2 construct: made in house; host or cells: E. coli BL21(DE3)
T2 sequence (Q92843 1-173 Q133R): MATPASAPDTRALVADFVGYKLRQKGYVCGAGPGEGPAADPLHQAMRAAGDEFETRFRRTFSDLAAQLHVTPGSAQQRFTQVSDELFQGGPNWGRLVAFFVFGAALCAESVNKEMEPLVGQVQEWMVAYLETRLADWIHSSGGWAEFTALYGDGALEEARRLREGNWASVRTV

T3: Bcl-wΔC29 (Homo sapiens, UniProt Q92843, Q133R)
T3 construct: GST (N, cleaved yes); made in house; host or cells: E. coli BL21(DE3)
T3 sequence (Q92843 1-164 Q133R): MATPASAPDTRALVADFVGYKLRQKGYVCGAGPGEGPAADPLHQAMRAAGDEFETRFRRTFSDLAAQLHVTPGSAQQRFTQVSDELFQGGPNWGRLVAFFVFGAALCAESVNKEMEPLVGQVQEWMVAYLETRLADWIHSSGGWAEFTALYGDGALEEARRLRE

T4: full length Bcl-w (Homo sapiens, UniProt Q92843, Q133R)
T4 sequence (Q92843 1-193 Q133R): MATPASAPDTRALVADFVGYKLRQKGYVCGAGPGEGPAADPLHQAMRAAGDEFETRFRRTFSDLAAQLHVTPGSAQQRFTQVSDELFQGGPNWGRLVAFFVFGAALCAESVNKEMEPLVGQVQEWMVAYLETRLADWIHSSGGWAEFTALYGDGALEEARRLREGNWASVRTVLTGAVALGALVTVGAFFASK

B1: Bcl-wΔC10: SEQ ID NO:2; Bcl-w derivative lacking the last 10 residues, Ala128 substituted with glutamate (protein)
chain: T1 sequence (Q92843 1-183 A128E/Q133R)
modifications: Bcl-w deltaC10 A128E
notes: Bcl-w derivative lacking the last 10 residues, Ala128 substituted with glutamate
B2: BimLΔC27: Purified, C-terminally truncated mouse BimL, a BH3-only protein (protein)
chain: GPLGSMAKQPSDVSSECDREGGQLQPAERPPQLRPGAPTSLQTEPQDRSPAPMSCDKSTQTPSPPCQAFNHYLSAMASIRQSQEEPEDLRPEIRIAQELRRIGDEFNETYTRRVFAND
B3: BimLΔC27-L94A: Mutant version of C-terminally truncated BimL with BH3 domain mutation L94A (protein)
chain: B2 chain with L99A
B4: Bcl-wΔC5: C-terminal truncated variant of Bcl-w lacking 5 residues (protein)
single chain: MATPASAPDTRALVADFVGYKLRQKGYVCGAGPGEGPAADPLHQAMRAAGDEFETRFRRTFSDLAAQLHVTPGSAQQRFTQVSDELFQGGPNWGRLVAFFVFGAALCAESVNKEMEPLVGQVQEWMVAYLETRLADWIHSSGGWAEFTALYGDGALEEARRLREGNWASVRTVLTGAVALGALVTVGA
B5: Bcl-wΔC3: C-terminal truncated variant of Bcl-w lacking 3 residues (protein)
single chain: MATPASAPDTRALVADFVGYKLRQKGYVCGAGPGEGPAADPLHQAMRAAGDEFETRFRRTFSDLAAQLHVTPGSAQQRFTQVSDELFQGGPNWGRLVAFFVFGAALCAESVNKEMEPLVGQVQEWMVAYLETRLADWIHSSGGWAEFTALYGDGALEEARRLREGNWASVRTVLTGAVALGALVTVGAFF
B6: BimL-L94A: BimL with BH3 mutation L94A (protein)
chain: MAKQPSDVSSECDREGGQLQPAERPPQLRPGAPTSLQTEPQDRSPAPMSCDKSTQTPSPPCQAFNHYLSAMASIRQSQEEPEDLRPEIRIAQEARRIGDEFNETYTRRVFANDYREAEDHPQMVILQLLRFIFRLVWRRH
modifications: left off: small tags and cut ends

Assays:
FDC-P1 myeloid cells = test: Survival assay of cells overexpressing Bcl-w constructs; format: cell-based; settings: overexpressed FLAG-tagged protein, IL-3 withdrawal, γ-irradiation or cytotoxic drugs
Procedure: Like its cousins Bcl-2 and Bcl-xL, Bcl-w overexpression protects cells from diverse death stimuli, including cytokine deprivation and γ-irradiation (Gibson et al., 1996).
Survival assays were performed as described previously (O'Connor et al., 1998; Huang et al., 1998; Wilson-Annan et al., 2003; and references therein). Briefly, cells (2−5×10^4 per time point) were left untreated, deprived of their essential growth factor IL-3, exposed to 10Gy γ-irradiation (provided by a ^60Co source), 1-100 nM staurosprorine (Sigma). Cell viability was quantified by flow cytometric analysis of cells excluding 5 μg/mL PI (Sigma) using a FACScan (Becton Dickinson). Each time point was performed in triplicate on at least 3 independent clones of each genotype and the experiments repeated at least 3 times.

Bcl-wΔC10 = molecular target: T1, Bcl-wΔC10; test: GST pull-down; format: binding
Description: (§1) Human Bcl-w and mouse BimL were expressed as glutathione-S-transferase (GST) fusion proteins in E. coli BL21(DE3) and purified by affinity chromatography using Glutathione Sepharose (APB; Amersham Pharmacia Biotech). Following purification of the GST-fusion proteins Bcl-w and Bim were released from GST using PreScission protease (APB) and then further purified by size exclusion chromatography using a Superdex-75 column. All the purified proteins have 5 additional N-terminal residues (GPLGS) as a result of cloning. Isotopically labelled proteins were prepared as described previously (Day et al., 1999). Samples of Bcl-wΔC10 used for NMR contained ˜1.0 mM protein in 50 mM sodium phosphate (pH 6.7), 70 mM NaCl, 2 mM tris-(2-carboxyethyl) phosphine (TCEP) and 0.04% sodium azide in H2O:^2H2O (95:5). The Bcl-wΔC5 sample contained 0.4 mM protein in the same buffer. Site specific mutants of BimL and Bcl-w were generated using a PCR based strategy as described previously (Day et al., 1999). The sequence of all clones was confirmed by sequencing.
(§2) Direct interactions between Bcl-w and BimL were monitored using GST pull-down experiments. These were performed in 100 μl of PBS (phosphate buffered saline pH 7.3) containing 2 mM DTT. Typically excess soluble proteins were added to equivalent amounts of resin bound proteins. After incubation at room temperature for 30 minutes the resin was pelleted and then washed twice with 200 μl of PBS containing 0.2% Tween 20. After removal of the second wash 10 μl of SDS-PAGE sample buffer was added to each sample and the samples were boiled then loaded onto 16% polyacrylamide gels that were electrophoresed and stained with Coomassie Blue R250. The staining intensity of the bound soluble protein indicated the strength of the interaction between the two proteins.

Bcl-wΔC20 = molecular target: T2, Bcl-wΔC20; test: GST pull-down; format: binding
Description: as §1, §2

Bcl-wΔC29 [1] = molecular target: T3, Bcl-wΔC29; test: GST pull-down; format: binding
Description: as §1, §2

Bcl-wΔC29 [2] = molecular target: T3, Bcl-wΔC29; test: BIAcore surface plasmon resonance, truncated Bcl-w in solution on immobilised Bim; format: binding; settings: for Kd: Bcl-w truncated by 29 residues at the C-terminus
Description: as §1
Analysis of protein interactions by surface plasmon resonance was carried out on a BIAcore 2000 biosensor (BIAcore). For the immobilisation to BIAcore CM 5 sensorchips (BIAcore), wild-type or mutant Bim proteins were buffer exchanged into 20 mM Na-acetate, pH 4.5. N-hydroxysuccinimide coupling and binding analysis was done as described previously (Lackmann et al., 1997). In order to minimise mass-transport mediated effects the kinetic experiments were routinely carried out at 20 μl/min. Bcl-w binding at concentrations between 2 and 0.03 μM in running buffer (10 mM HEPES, pH 7.4, 150 mM NaCl, 3.4 mM EDTA, 0.005% Tween 20) was performed on sensorchip surfaces derivatised on parallel channels with a non-relevant protein, BimLΔC27 and BimLΔC27-L94A. The binding kinetics were derived from the sensorgrams following subtraction of baseline responses (measured on the control channel) by ‘global analysis’ using the BIA Evaluation software (vers. 3.02, BIAcore). […]

full length Bcl-w [3] = molecular target: T4, full length Bcl-w; test: BIAcore surface plasmon resonance, Bcl-w protein in solution on immobilised Bim; format: binding; design: GST (N, cleaved yes); made in house; host or cells: E. coli BL21(DE3); settings: for Kd: 1:1 Langmuir model, global analysis
Description: as §1
Analysis of protein interactions by surface plasmon resonance was carried out on a BIAcore 2000 biosensor (BIAcore). For the immobilisation to BIAcore CM 5 sensorchips (BIAcore), wild-type or mutant Bim proteins were buffer exchanged into 20 mM Na-acetate, pH 4.5. N-hydroxysuccinimide coupling and binding analysis was done as described previously (Lackmann et al., 1997). In order to minimise mass-transport mediated effects the kinetic experiments were routinely carried out at 20 μl/min. Bcl-w binding at concentrations between 2 and 0.03 μM in running buffer (10 mM HEPES, pH 7.4, 150 mM NaCl, 3.4 mM EDTA, 0.005% Tween 20) was performed on sensorchip surfaces derivatised on parallel channels with a non-relevant protein, BimLΔC27 and BimLΔC27-L94A. The binding kinetics were derived from the sensorgrams following subtraction of baseline responses (measured on the control channel) by ‘global analysis’ using the BIA Evaluation software (vers. 3.02, BIAcore). The surface of the chip was regenerated with 50 mM 1,2-diethylamine containing 0.1% Triton X100, followed by two washes with running buffer.

full length Bcl-w [4] = molecular target: T4, full length Bcl-w; test: GST pull-down; format: binding; design: N-terminally FLAG-tagged full-length or C-terminally truncated Bcl-w; expressed in transfected cells; host or cells: 293T human embryonic kidney cells (pEF-based vector, transient)
Description: as §1
Direct interactions between Bcl-w and BimL were monitored using GST pull-down experiments. These were performed in 100 μl of PBS (phosphate buffered saline pH 7.3) containing 2 mM DTT. Typically excess soluble proteins were added to equivalent amounts of resin bound proteins. […]

full-length Bcl-xL = molecular target: T5, full-length Bcl-xL (Homo sapiens, UniProt Q07817); test: Co-immunoprecipitation from cell extracts; format: binding; settings: FLAG-tagged full-length Bcl-xL
T5 construct: FLAG-tagged full-length Bcl-xL or a C-terminally truncated mutant (ΔC24); expressed in transfected cells
Description: (§3) Bcl-xL and Bcl-2 also contain hydrophobic residues at their C-termini, similar to those found in Bcl-w (FIG. 1C), yet the low level of sequence identity following α8 and the absence of 3D-structural information, makes prediction of their conformation difficult. Since BCl-xL, like Bcl-w, is only partially membrane-bound in healthy cells (Hsu et al., 1997), we compared the ability of FLAG-tagged full-length Bcl-xL or a C-terminally truncated mutant (ΔC24) to bind to BimL or the […]L94A B3 mutant.
Cell culture, stable transfections into FDC-P1, transient transfections into 293T human embryonic kidney cells, metabolic labelling with ^35S-methionine/cysteine (NEN) and co-immunoprecipitation have been previously described (O'Connor et al., 1998, Moriishi et al., 1999; Huang et al., 1998; Wilson-Annan et al., 2003). Briefly, mammalian pEF-based expression vectors for Bcl-w, BCl-xL, Bim, Bmf, Bad and Bik (O'Connor et al., 1998, Huang et al., 1998; Moriishi et al., 1999; Wilson-Annan et al., 2003) were transiently transfected using liposome mediated transfection (Lipofectamine™; Invitrogen). […] The immunoprecipitates were resolved by SDS-PAGE (Novex), transferred onto nitrocellulose membranes (APB) and the proteins detected by fluorography (Amplify; APB).

Bcl-xLΔC24 = molecular target: T6, Bcl-xLΔC24 (Homo sapiens, UniProt Q07817); test: Co-immunoprecipitation / GST pull-down; format: binding; settings: C-terminally truncated Bcl-xL (ΔC24)
T6 construct: expressed in transfected cells
Description: as §3
Direct interactions between Bcl-w and BimL were monitored using GST pull-down experiments. These were performed in 100 μl of PBS (phosphate buffered saline pH 7.3) containing 2 mM DTT. Typically excess soluble proteins were added to equivalent amounts of resin bound proteins. After incubation at room temperature for 30 minutes the resin was pelleted and then washed twice with 200 μl of PBS containing 0.2% Tween 20. […]
Cell culture, stable transfections into FDC-P1, transient transfections into 293T human embryonic kidney cells, metabolic labelling with ^35S-methionine/cysteine (NEN) and co-immunoprecipitation have been previously described (O'Connor et al., 1998, Moriishi et al., 1999; Huang et al., 1998; Wilson-Annan et al., 2003). […] The immunoprecipitates were resolved by SDS-PAGE (Novex), transferred onto nitrocellulose membranes (APB) and the proteins detected by fluorography (Amplify; APB).

T5 sequence (Q07817 whole entry, species assumed, the tested form may be a part): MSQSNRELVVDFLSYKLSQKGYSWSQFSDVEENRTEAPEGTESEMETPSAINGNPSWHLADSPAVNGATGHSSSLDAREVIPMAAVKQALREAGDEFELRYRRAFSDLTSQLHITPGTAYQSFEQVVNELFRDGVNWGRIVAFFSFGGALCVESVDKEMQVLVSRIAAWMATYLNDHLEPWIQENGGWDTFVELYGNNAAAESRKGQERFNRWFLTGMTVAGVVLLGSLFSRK
T6 sequence (Q07817 1-209 limits assumed, stated change not applied): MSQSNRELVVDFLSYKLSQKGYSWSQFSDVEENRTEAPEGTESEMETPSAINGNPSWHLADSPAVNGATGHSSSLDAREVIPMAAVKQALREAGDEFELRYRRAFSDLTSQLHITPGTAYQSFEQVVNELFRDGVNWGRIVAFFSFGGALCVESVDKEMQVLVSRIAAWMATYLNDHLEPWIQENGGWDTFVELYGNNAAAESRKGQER

Row | Molecule | pro-survival activity (FDC-P1 myeloid cells) | binding in GST pull-down (Bcl-wΔC10) | binding in GST pull-down (Bcl-wΔC20) | binding in GST pull-down (Bcl-wΔC29 [1]) | Kd (Bcl-wΔC29 [2]) [nM] | Kd (full length Bcl-w [3]) [nM] | binding in GST pull-down (full length Bcl-w [4]) | further results
1 | B1 | biologically inert |  |  |  |  |  |  | 
2 | B2 |  | bound | bound equally well | bound equally well | 11 | 24 | bound | increase in the association rate versus full length Bcl-w (Bcl-wΔC29 [2]; Bcl-wΔC29): three-fold
3 | B3 |  | only bound wt BimLΔC27 | bound equally well | bound equally well | 13 | 1600 | only bound wt BimLΔC27 | decrease in the association rate versus wild-type Bim (full length Bcl-w [3]): 10 fold; increase in the dissociation rates versus wild-type Bim (full length Bcl-w [3]): five-fold; reduction of affinity versus wild-type Bim (full length Bcl-w [3]): over 60 fold
4 | B4 | behaved like the full-length protein |  |  |  |  |  |  | pro-survival activity (FDC-P1 myeloid cells; listed as ΔC5): fully active
5 | B5 | fully active |  |  |  |  |  |  | 
6 | B6 |  |  |  |  |  |  |  | association in cell extracts (full-length Bcl-xL): associates only with wild-type BimL; binding (Bcl-xLΔC24): bound wild-type BimL and the L94A mutant equally
